From article doi:10.1101/2025.06.02.656870

Molecular target: chicken IgY (chicken)
Test: BLI; Octet SAX biosensors, as described previously (ref. 10); kinetic 1:1 model, global fits over multiple Fab concentrations

Chain of chicken IgY (chicken) (main, as listed by the source): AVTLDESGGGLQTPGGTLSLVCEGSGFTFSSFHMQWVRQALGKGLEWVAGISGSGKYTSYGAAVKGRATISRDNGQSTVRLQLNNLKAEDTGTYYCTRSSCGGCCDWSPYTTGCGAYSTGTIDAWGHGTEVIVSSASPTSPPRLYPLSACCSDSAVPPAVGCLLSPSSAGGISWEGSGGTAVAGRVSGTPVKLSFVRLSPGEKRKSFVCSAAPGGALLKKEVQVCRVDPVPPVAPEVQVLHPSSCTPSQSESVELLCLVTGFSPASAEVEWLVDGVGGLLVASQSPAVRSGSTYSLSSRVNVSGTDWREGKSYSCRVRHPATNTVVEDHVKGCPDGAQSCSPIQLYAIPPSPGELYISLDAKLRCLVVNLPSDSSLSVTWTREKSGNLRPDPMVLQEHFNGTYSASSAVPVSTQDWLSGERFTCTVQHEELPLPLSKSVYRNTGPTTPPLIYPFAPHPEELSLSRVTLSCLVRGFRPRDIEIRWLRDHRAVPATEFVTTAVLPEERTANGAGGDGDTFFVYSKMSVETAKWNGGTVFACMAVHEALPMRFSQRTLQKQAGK

B1: 2.1^hi Fab (D28HA, K49HR, S64HG, A40LG, Y42LF, A52LS, Q105LH, N108LY) (Fab, V domains shown)
VH: EVQLQESGPSLVKPSQTLSLTCSVTGASITSGYWNWIRKFPGNRLEYMGYISYSGGTYYNPSLKSRISITRDTSKNQYYLQLNSVTTEDTATYYCARDFDVWGAGTTVTVSS
VL: DIVMTQSQKFMSTSVGDRVSVTCKASQNVGTNVGWFQQKPGQSPKSLIYSASYRYSGVPDRFTGSGSGTDFTLTISNVQSEDLAEYFCHQYYSYPLTFGSGTKLEIK
Work on B1 yielded a Kd of 0.062 nM.
